# Data published in article PMC3882140.
# Target: CP-431C/mCherrySP141(C140A) P22 procapsid (bacteriophage P22) (UniProt P26747)
# Experiment: pelleting by ultracentrifugation and resuspension
substance,measurement,value
CP-431C/mCherrySP141(C140A) P22 procapsid (from UniProt P26747 1-430; P26748 141-303) (complex),"soluble capsid recovered after pelleting, relative to wtCP/mCherrySP141(C140A)",3%
